# Measured values as given in patent publication US20240360183A1 (SHANGHAI PUYOU BIOMEDICAL, published 2024).
# Residue numbers refer to the chain shown, from its start.
# B1: CF-40 (SEQ ID NO: 53) (peptide)
# chain: SEKKQPVDLGLLEEDDEFEEFPAEDWAGLDEDEDAHVWEDNWDDDNVTSDFSNQLRATVLLMILVCETPYGCYVLHQKGRMCSAFLCC
# B2: CF-38 (SEQ ID NO: 51) (peptide)
# chain: B1 chain with E2T, D25S, D34S
# B3: CF-39 (SEQ ID NO: 52) (peptide)
# chain: B1 chain with D34S
# B4: CF-43 (SEQ ID NO: 54) (peptide)
# chain: SEKKQPVDLGLLEEDDEFEEFPAEDWAGLDEDEDAHVWEDNWDDDNVTSDFSNQLRATVLLMILVCETPYGCYVLHQKGRMCS
# B5: CF-28 (SEQ ID NO: 45) (peptide)
# chain: SEFEDANKEQGEVPNDDVSDELPKLLDDDEDELRGALFFQWHDWEEAEDNDWDVEDATVLLMILVCETPYGCYVLHQKGRMCSAFLCC
# B6: CF-29 (SEQ ID NO: 46) (peptide)
# chain: SELDFWDNWKDRQADLPAASDDEDFENDLAEVDHEDPLVDGNEWDGDEVEFELEEQKTVLLMILVCETPYGCYVLHQKGRMCSAFLCC
# B7: CF-11 (SEQ ID NO: 31) (peptide)
# chain: B1 chain with T48E, S49D, C66V, C72V, C82V, C87V, C88V
# B8: CF-22 (SEQ ID NO: 36) (peptide)
# chain: B1 chain with T48E, S49D, C66V, C72A, C82A, C87V, C88V
# B9: CF-10 (SEQ ID NO: 30) (peptide)
# chain: B1 chain with T48E, S49D, C88A
# B10: CF-24 (SEQ ID NO: 38) (peptide)
# chain: B1 chain with T48E, S49D, C66V, C72A, C82V, C87V, C88A
# B11: CF-25 (SEQ ID NO: 39) (peptide)
# chain: B1 chain with T48E, S49D, C66V, C72V, C82A, C87A, C88V
# B12: CF-04 (SEQ ID NO: 29) (peptide)
# chain: B1 chain with T48E, S49D, C66A, C72A, C82A, C87A, C88A
# B13: CF-30 (SEQ ID NO: 47) (peptide)
# chain: SDADEFDDDNSVWGWEDDEVEPNDAFQPLGDVRANEELDEKDHKLDEEADLQWEFELTVLLMILVCETPYGCYVLHQKGRMCSAFLCC
# B14: CF-31 (SEQ ID NO: 48) (peptide)
# chain: SQWAPLDHLESDEWGAFEDEDFNNGDVEELDPEERDDEDLFQKDVLVAKADDEEWDNTVLLMILVCETPYGCYVLHQKGRMCSAFLCC
# Target: oxidized HSA protein (UniProt P02768 25-609, oxidized with 8 mM NaClO in the dark for 30 min (which residues are oxidized is not stated))
# Experiment: cell-based or functional assay
# Chain of oxidized HSA protein (P02768 25-609): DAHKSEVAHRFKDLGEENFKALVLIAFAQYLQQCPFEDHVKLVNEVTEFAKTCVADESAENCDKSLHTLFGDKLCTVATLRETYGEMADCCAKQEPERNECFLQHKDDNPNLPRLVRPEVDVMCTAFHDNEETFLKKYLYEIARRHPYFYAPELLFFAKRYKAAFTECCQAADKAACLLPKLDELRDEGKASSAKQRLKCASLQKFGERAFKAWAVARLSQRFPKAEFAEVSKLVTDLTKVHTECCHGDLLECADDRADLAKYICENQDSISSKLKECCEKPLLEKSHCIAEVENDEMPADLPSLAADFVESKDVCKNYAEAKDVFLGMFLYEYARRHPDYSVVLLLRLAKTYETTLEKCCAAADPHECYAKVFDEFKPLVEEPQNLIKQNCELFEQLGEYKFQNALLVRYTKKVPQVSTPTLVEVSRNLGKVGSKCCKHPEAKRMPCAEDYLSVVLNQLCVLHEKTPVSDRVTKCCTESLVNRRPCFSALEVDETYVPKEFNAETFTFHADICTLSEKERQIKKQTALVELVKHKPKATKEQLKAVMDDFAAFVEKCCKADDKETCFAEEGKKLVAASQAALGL
row,Binder,IC50 (µM) for cellular ROS level induced by DAMP
1,B1,5.87 µM
2,B2,4.12 µM
3,B3,3.91 µM
4,B4,6.13 µM

# Target: BSA (UniProt P02769 25-607)
# Experiment: cell-based or functional assay
# Chain of BSA (P02769 25-607 limits assumed): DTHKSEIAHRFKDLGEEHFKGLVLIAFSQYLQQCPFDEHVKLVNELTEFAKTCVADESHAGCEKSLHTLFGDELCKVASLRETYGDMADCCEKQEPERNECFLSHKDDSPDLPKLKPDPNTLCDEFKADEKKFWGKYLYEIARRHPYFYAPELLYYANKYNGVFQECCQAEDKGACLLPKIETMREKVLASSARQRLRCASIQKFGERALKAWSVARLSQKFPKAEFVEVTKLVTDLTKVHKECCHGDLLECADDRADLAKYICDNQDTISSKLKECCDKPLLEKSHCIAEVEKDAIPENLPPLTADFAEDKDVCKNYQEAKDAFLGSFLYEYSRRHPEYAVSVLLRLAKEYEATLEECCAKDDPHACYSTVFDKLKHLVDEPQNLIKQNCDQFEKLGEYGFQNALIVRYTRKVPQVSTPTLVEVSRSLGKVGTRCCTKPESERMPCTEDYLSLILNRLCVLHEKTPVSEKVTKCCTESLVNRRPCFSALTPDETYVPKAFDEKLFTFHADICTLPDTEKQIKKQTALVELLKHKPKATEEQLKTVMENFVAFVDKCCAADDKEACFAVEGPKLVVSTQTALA
row,Binder,IC50 (µM) for inhibiting thermal aggregation of BSA
1,B5,7.48 µM
2,B6,13.8 µM
3,B7,~7 µM
4,B8,16.9 µM
5,B1,12 µM
6,B9,13.8 µM
7,B2,13.8 µM
8,B3,10.5 µM
9,B10,17.6 µM
10,B11,21.5 µM
11,B12,~10.2 µM
12,B13,21.3 µM
13,B4,6.77 µM
14,B14,12.8 µM
